Paper PMC4710668, “Bioactivation of food genotoxicants 5-hydroxymethylfurfural and furfuryl alcohol by sulfotransferases from human, mouse and rat: a comparative study” (Archives of Toxicology, 2014)

Columns and labels:
Assay in all cases: HMF sulfoconjugation assay
Conditions in all cases: other: catalytic efficiency of HMF sulfoconjugation; pH 7.4
O=Cc1ccc(CO)o1 [1] = test system: T1, O=Cc1ccc(CO)o1; format: biochemical, human
T1 construct: made in house; host or cells: Salmonella typhimurium TA1538 (cytosolic fraction, not purified)
Experimental: (§1) Cytosolic fractions containing individual SULT forms were prepared from transgenic S. typhimurium TA1538. Table S1 in the Supplementary Material provides a summary of the thirty SULTs used in the current study together with references describing the cloning of the respective S. typhimurium TA1538 strains. The expressed SULT forms are denoted with the prefixes h, m and r for human, mouse and rat enzymes, respectively. Bacteria were grown in Luria Broth medium containing ampicillin (100 µg/ml) by stirring for 8 h at 200 revolutions/min at 37 °C. The bacterial suspensions were centrifuged at 5,000 g for 10 min. […] The protein concentrations were determined according to a bicinchoninic acid (BCA) assay protocol. […]
(§2) The reactions were conducted in mixtures of 100 µl containing 25–200 µg protein, 50 mM potassium phosphate buffer (pH 7.4), 5 mM MgCl2, 50 µM PAPS and different concentrations of HMF at 37 °C. Preliminary experiments ensured that measurements were recorded under ‘linear’ conditions, i.e., doubling of protein concentration or incubation time was doubling the amount of sulfate ester formed. […]
(§3) SMF concentrations of the clear supernatants were analyzed by UPLC-MS/MS. The protocol was adapted from the quantification of SMF in plasma samples of HMF-treated mice (Monien et al. [2009]). […]

O=Cc1ccc(CO)o1 [2] = test system: T2, O=Cc1ccc(CO)o1; format: biochemical, mouse
T2 construct: made in house; host or cells: Salmonella typhimurium TA1538 (cytosolic fraction, enzyme not purified)
Experimental: as §1, §2, §3

O=Cc1ccc(CO)o1 [3] = test system: T2, O=Cc1ccc(CO)o1; format: biochemical, rat
Experimental: as §1, §2, §3

rSult1b1 (Rattus norvegicus), sequence (chain, as listed by the source): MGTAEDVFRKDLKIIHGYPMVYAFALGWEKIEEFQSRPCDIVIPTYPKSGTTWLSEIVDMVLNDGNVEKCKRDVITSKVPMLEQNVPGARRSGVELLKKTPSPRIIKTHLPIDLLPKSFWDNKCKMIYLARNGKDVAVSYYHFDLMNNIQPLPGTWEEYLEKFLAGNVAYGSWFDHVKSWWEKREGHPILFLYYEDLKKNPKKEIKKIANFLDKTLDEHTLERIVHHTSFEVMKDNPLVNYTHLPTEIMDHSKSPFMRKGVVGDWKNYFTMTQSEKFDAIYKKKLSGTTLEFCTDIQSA
hSULT1B1 (Homo sapiens), sequence (chain, as listed by the source): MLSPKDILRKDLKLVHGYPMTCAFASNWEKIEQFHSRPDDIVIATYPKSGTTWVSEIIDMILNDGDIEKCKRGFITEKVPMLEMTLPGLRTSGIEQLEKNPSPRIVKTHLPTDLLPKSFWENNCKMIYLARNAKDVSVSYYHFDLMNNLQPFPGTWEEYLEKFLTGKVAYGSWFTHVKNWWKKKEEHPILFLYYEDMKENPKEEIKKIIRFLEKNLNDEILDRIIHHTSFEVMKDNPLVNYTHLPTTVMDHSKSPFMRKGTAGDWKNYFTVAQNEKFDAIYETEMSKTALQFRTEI
mSult1b1 (Mus musculus), sequence (chain, as listed by the source): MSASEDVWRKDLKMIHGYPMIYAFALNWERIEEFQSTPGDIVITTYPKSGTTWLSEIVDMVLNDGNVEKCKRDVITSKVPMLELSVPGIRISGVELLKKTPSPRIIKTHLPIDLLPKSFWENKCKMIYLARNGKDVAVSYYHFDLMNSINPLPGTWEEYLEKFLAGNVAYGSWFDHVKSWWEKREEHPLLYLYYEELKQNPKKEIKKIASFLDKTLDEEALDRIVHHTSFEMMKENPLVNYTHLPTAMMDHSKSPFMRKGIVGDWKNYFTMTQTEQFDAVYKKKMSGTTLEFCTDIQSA

hSULT1B1 (Homo sapiens)
kcat/Km (O=Cc1ccc(CO)o1 [1]): 0.31 M⁻¹ s⁻¹

mSult1b1 (Mus musculus)
kcat/Km (O=Cc1ccc(CO)o1 [2]): 0.36 M⁻¹ s⁻¹

rSult1b1 (Rattus norvegicus)
kcat/Km (O=Cc1ccc(CO)o1 [3]): 0.09 M⁻¹ s⁻¹
